The labels stand for the following.
B1: Pistol ribozyme (parent)
chain: GGGUCGUUGUUCCAUAAUCGCGUGGAUAUGGCACGCAAGUUUCUACCGGGCACCGUAAAUGUCCGACUGGAGCCGUUCGGGCGGCUAUAAACAGACCUCAGGCCCGAAGCGUGGCGGCACCUGCCGCCGGUGGUAAAAAAGAUCGGAAGAGCACACGUCU

This note sets out measurements from the RNAGym collection of RNA variant scans (doi:10.1021/acssynbio.7b00057).

Variants of B1 are the subject of this data set. Kind of data set: aptazyme ON/OFF ratio, guanine; higher = stronger switching; co-transcriptional cleavage with and without guanine.
As for GGGUCGGUCUCCCAUAAUCGCGUGGAUAUGGCACGCAAGUUUCUACCGGGCACCGUAAAUGUCCGACUGGAGCCGUUCGGGCGGCUAUAAACAGACCUCAGGCCCGAAGCGUGGCGGCACCUGCCGCCGGUGGUAAAAAAGAUCGGAAGAGCACACGUCU, the “aptazyme ON/OFF ratio” value was found to be 2.53.

Consider GGGUCGCACGAUAAUAAUCGCGUGGAUAUGGCACGCAAGUUUCUACCGGGCACCGUAAAUGUCCGACUGGAGCCGUUCGGGCGGCUAUAAACAGACCUCAGGCCCGAAGCGUGGCGGCACCUGCCGCCGGUGGUAAAAAAGAUCGGAAGAGCACACGUCU, for which the “aptazyme ON/OFF ratio” value was found to be 1.16. Consider GGGUCGAGGUGCCAUAAUCGCGUGGAUAUGGCACGCAAGUUUCUACCGGGCACCGUAAAUGUCCGACUGGAGCCGUUCGGGCGGCUAUAAACAGACCUCAGGCCCGAAGCGUGGCGGCACCUGCCGCCGGUGGUAAAAAAGAUCGGAAGAGCACACGUCU, for which the “aptazyme ON/OFF ratio” value was found to be 1.95. The value for GGGUCGCUCGAACAUAAUCGCGUGGAUAUGGCACGCAAGUUUCUACCGGGCACCGUAAAUGUCCGACUGGAGCCGUUCGGGCGGCUAUAAACAGACCUCAGGCCCGAAGCGUGGCGGCACCUGCCGCCGGUGGUAAAAAAGAUCGGAAGAGCACACGUCU was 1.25.

For the variant GGGUCGUUAUUUCAUAAUCGCGUGGAUAUGGCACGCAAGUUUCUACCGGGCACCGUAAAUGUCCGACUGGAGCCGUUCGGGCGGCUAUAAACAGACCUCAGGCCCGAAGCGUGGCGGCACCUGCCGCCGGUGGUAAAAAAGAUCGGAAGAGCACACGUCU, the “aptazyme ON/OFF ratio” value is 1.78. Take GGGUCGAGUCUCUAUAAUCGCGUGGAUAUGGCACGCAAGUUUCUACCGGGCACCGUAAAUGUCCGACUGGAGCCGUUCGGGCGGCUAUAAACAGACCUCAGGCCCGAAGCGUGGCGGCACCUGCCGCCGGUGGUAAAAAAGAUCGGAAGAGCACACGUCU: the “aptazyme ON/OFF ratio” value is 1.57. GGGUCGCCAGGAAAUAAUCGCGUGGAUAUGGCACGCAAGUUUCUACCGGGCACCGUAAAUGUCCGACUGGAGCCGUUCGGGCGGCUAUAAACAGACCUCAGGCCCGAAGCGUGGCGGCACCUGCCGCCGGUGGUAAAAAAGAUCGGAAGAGCACACGUCU: the “aptazyme ON/OFF ratio” value is 1.2. Turning to GGGUCGGUCGACAAUAAUCGCGUGGAUAUGGCACGCAAGUUUCUACCGGGCACCGUAAAUGUCCGACUGGAGCCGUUCGGGCGGCUAUAAACAGACCUCAGGCCCGAAGCGUGGCGGCACCUGCCGCCGGUGGUAAAAAAGAUCGGAAGAGCACACGUCU, the “aptazyme ON/OFF ratio” value worked out at 1.18.

Turning to GGGUCGAACAAAGAUAAUCGCGUGGAUAUGGCACGCAAGUUUCUACCGGGCACCGUAAAUGUCCGACUGGAGCCGUUCGGGCGGCUAUAAACAGACCUCAGGCCCGAAGCGUGGCGGCACCUGCCGCCGGUGGUAAAAAAGAUCGGAAGAGCACACGUCU, the “aptazyme ON/OFF ratio” value was determined as 1.07. As for GGGUCGAUAACCCAUAAUCGCGUGGAUAUGGCACGCAAGUUUCUACCGGGCACCGUAAAUGUCCGACUGGAGCCGUUCGGGCGGCUAUAAACAGACCUCAGGCCCGAAGCGUGGCGGCACCUGCCGCCGGUGGUAAAAAAGAUCGGAAGAGCACACGUCU, the “aptazyme ON/OFF ratio” value is 1.07.

For GGGUCGGCUUGAUAUAAUCGCGUGGAUAUGGCACGCAAGUUUCUACCGGGCACCGUAAAUGUCCGACUGGAGCCGUUCGGGCGGCUAUAAACAGACCUCAGGCCCGAAGCGUGGCGGCACCUGCCGCCGGUGGUAAAAAAGAUCGGAAGAGCACACGUCU, the “aptazyme ON/OFF ratio” value stood at 1.38.

On to GGGUCGUAAACUGAUAAUCGCGUGGAUAUGGCACGCAAGUUUCUACCGGGCACCGUAAAUGUCCGACUGGAGCCGUUCGGGCGGCUAUAAACAGACCUCAGGCCCGAAGCGUGGCGGCACCUGCCGCCGGUGGUAAAAAAGAUCGGAAGAGCACACGUCU, for which the “aptazyme ON/OFF ratio” value was determined as 1.17. On to GGGUCGCAAAGGCAUAAUCGCGUGGAUAUGGCACGCAAGUUUCUACCGGGCACCGUAAAUGUCCGACUGGAGCCGUUCGGGCGGCUAUAAACAGACCUCAGGCCCGAAGCGUGGCGGCACCUGCCGCCGGUGGUAAAAAAGAUCGGAAGAGCACACGUCU, for which the “aptazyme ON/OFF ratio” value turned out to be 1.12.

As to GGGUCGGCUAACUAUAAUCGCGUGGAUAUGGCACGCAAGUUUCUACCGGGCACCGUAAAUGUCCGACUGGAGCCGUUCGGGCGGCUAUAAACAGACCUCAGGCCCGAAGCGUGGCGGCACCUGCCGCCGGUGGUAAAAAAGAUCGGAAGAGCACACGUCU, the “aptazyme ON/OFF ratio” value is 1.79. For the variant GGGUCGAUCUUAAAUAAUCGCGUGGAUAUGGCACGCAAGUUUCUACCGGGCACCGUAAAUGUCCGACUGGAGCCGUUCGGGCGGCUAUAAACAGACCUCAGGCCCGAAGCGUGGCGGCACCUGCCGCCGGUGGUAAAAAAGAUCGGAAGAGCACACGUCU, the “aptazyme ON/OFF ratio” value turned out to be 1.07. The value for GGGUCGUGCGCUGAUAAUCGCGUGGAUAUGGCACGCAAGUUUCUACCGGGCACCGUAAAUGUCCGACUGGAGCCGUUCGGGCGGCUAUAAACAGACCUCAGGCCCGAAGCGUGGCGGCACCUGCCGCCGGUGGUAAAAAAGAUCGGAAGAGCACACGUCU was 1.02; that for GGGUCGGCCGCAAAUAAUCGCGUGGAUAUGGCACGCAAGUUUCUACCGGGCACCGUAAAUGUCCGACUGGAGCCGUUCGGGCGGCUAUAAACAGACCUCAGGCCCGAAGCGUGGCGGCACCUGCCGCCGGUGGUAAAAAAGAUCGGAAGAGCACACGUCU was 1.34; that for GGGUCGGCGUGCUAUAAUCGCGUGGAUAUGGCACGCAAGUUUCUACCGGGCACCGUAAAUGUCCGACUGGAGCCGUUCGGGCGGCUAUAAACAGACCUCAGGCCCGAAGCGUGGCGGCACCUGCCGCCGGUGGUAAAAAAGAUCGGAAGAGCACACGUCU was 1.17. As for GGGUCGACUGACAAUAAUCGCGUGGAUAUGGCACGCAAGUUUCUACCGGGCACCGUAAAUGUCCGACUGGAGCCGUUCGGGCGGCUAUAAACAGACCUCAGGCCCGAAGCGUGGCGGCACCUGCCGCCGGUGGUAAAAAAGAUCGGAAGAGCACACGUCU, the “aptazyme ON/OFF ratio” value was determined as 1.04. Take GGGUCGUCGCACAAUAAUCGCGUGGAUAUGGCACGCAAGUUUCUACCGGGCACCGUAAAUGUCCGACUGGAGCCGUUCGGGCGGCUAUAAACAGACCUCAGGCCCGAAGCGUGGCGGCACCUGCCGCCGGUGGUAAAAAAGAUCGGAAGAGCACACGUCU: the “aptazyme ON/OFF ratio” value turned out to be 1.32.

Consider GGGUCGACCUGUGAUAAUCGCGUGGAUAUGGCACGCAAGUUUCUACCGGGCACCGUAAAUGUCCGACUGGAGCCGUUCGGGCGGCUAUAAACAGACCUCAGGCCCGAAGCGUGGCGGCACCUGCCGCCGGUGGUAAAAAAGAUCGGAAGAGCACACGUCU, for which the “aptazyme ON/OFF ratio” value came to 1.19. Regarding GGGUCGUUCGUUCAUAAUCGCGUGGAUAUGGCACGCAAGUUUCUACCGGGCACCGUAAAUGUCCGACUGGAGCCGUUCGGGCGGCUAUAAACAGACCUCAGGCCCGAAGCGUGGCGGCACCUGCCGCCGGUGGUAAAAAAGAUCGGAAGAGCACACGUCU, the “aptazyme ON/OFF ratio” value worked out at 1.47. Consider GGGUCGUGUCCGUAUAAUCGCGUGGAUAUGGCACGCAAGUUUCUACCGGGCACCGUAAAUGUCCGACUGGAGCCGUUCGGGCGGCUAUAAACAGACCUCAGGCCCGAAGCGUGGCGGCACCUGCCGCCGGUGGUAAAAAAGAUCGGAAGAGCACACGUCU, for which the “aptazyme ON/OFF ratio” value stood at 1.09. Turning to GGGUCGUGAUUGAAUAAUCGCGUGGAUAUGGCACGCAAGUUUCUACCGGGCACCGUAAAUGUCCGACUGGAGCCGUUCGGGCGGCUAUAAACAGACCUCAGGCCCGAAGCGUGGCGGCACCUGCCGCCGGUGGUAAAAAAGAUCGGAAGAGCACACGUCU, the “aptazyme ON/OFF ratio” value was determined as 1.37. As to GGGUCGCUGUACUAUAAUCGCGUGGAUAUGGCACGCAAGUUUCUACCGGGCACCGUAAAUGUCCGACUGGAGCCGUUCGGGCGGCUAUAAACAGACCUCAGGCCCGAAGCGUGGCGGCACCUGCCGCCGGUGGUAAAAAAGAUCGGAAGAGCACACGUCU, the “aptazyme ON/OFF ratio” value was 1.23. Consider GGGUCGUCCCCUCAUAAUCGCGUGGAUAUGGCACGCAAGUUUCUACCGGGCACCGUAAAUGUCCGACUGGAGCCGUUCGGGCGGCUAUAAACAGACCUCAGGCCCGAAGCGUGGCGGCACCUGCCGCCGGUGGUAAAAAAGAUCGGAAGAGCACACGUCU, for which the “aptazyme ON/OFF ratio” value came to 0.966. As to GGGUCGCUACCUAAUAAUCGCGUGGAUAUGGCACGCAAGUUUCUACCGGGCACCGUAAAUGUCCGACUGGAGCCGUUCGGGCGGCUAUAAACAGACCUCAGGCCCGAAGCGUGGCGGCACCUGCCGCCGGUGGUAAAAAAGAUCGGAAGAGCACACGUCU, the “aptazyme ON/OFF ratio” value was 1.04. GGGUCGCUUGCCUAUAAUCGCGUGGAUAUGGCACGCAAGUUUCUACCGGGCACCGUAAAUGUCCGACUGGAGCCGUUCGGGCGGCUAUAAACAGACCUCAGGCCCGAAGCGUGGCGGCACCUGCCGCCGGUGGUAAAAAAGAUCGGAAGAGCACACGUCU: the “aptazyme ON/OFF ratio” value was determined as 1.07.

For GGGUCGAGGAAACAUAAUCGCGUGGAUAUGGCACGCAAGUUUCUACCGGGCACCGUAAAUGUCCGACUGGAGCCGUUCGGGCGGCUAUAAACAGACCUCAGGCCCGAAGCGUGGCGGCACCUGCCGCCGGUGGUAAAAAAGAUCGGAAGAGCACACGUCU, the “aptazyme ON/OFF ratio” value stood at 1.47.

Regarding GGGUCGUCAUCCGAUAAUCGCGUGGAUAUGGCACGCAAGUUUCUACCGGGCACCGUAAAUGUCCGACUGGAGCCGUUCGGGCGGCUAUAAACAGACCUCAGGCCCGAAGCGUGGCGGCACCUGCCGCCGGUGGUAAAAAAGAUCGGAAGAGCACACGUCU, the “aptazyme ON/OFF ratio” value came out at 1.04. On to GGGUCGGCCCAAAAUAAUCGCGUGGAUAUGGCACGCAAGUUUCUACCGGGCACCGUAAAUGUCCGACUGGAGCCGUUCGGGCGGCUAUAAACAGACCUCAGGCCCGAAGCGUGGCGGCACCUGCCGCCGGUGGUAAAAAAGAUCGGAAGAGCACACGUCU, for which the “aptazyme ON/OFF ratio” value is 1.04. For GGGUCGGCCACUUAUAAUCGCGUGGAUAUGGCACGCAAGUUUCUACCGGGCACCGUAAAUGUCCGACUGGAGCCGUUCGGGCGGCUAUAAACAGACCUCAGGCCCGAAGCGUGGCGGCACCUGCCGCCGGUGGUAAAAAAGAUCGGAAGAGCACACGUCU, the “aptazyme ON/OFF ratio” value turned out to be 1.09.

As to GGGUCGCUACACUAUAAUCGCGUGGAUAUGGCACGCAAGUUUCUACCGGGCACCGUAAAUGUCCGACUGGAGCCGUUCGGGCGGCUAUAAACAGACCUCAGGCCCGAAGCGUGGCGGCACCUGCCGCCGGUGGUAAAAAAGAUCGGAAGAGCACACGUCU, the “aptazyme ON/OFF ratio” value was 1.33. As to GGGUCGGUAUUCGAUAAUCGCGUGGAUAUGGCACGCAAGUUUCUACCGGGCACCGUAAAUGUCCGACUGGAGCCGUUCGGGCGGCUAUAAACAGACCUCAGGCCCGAAGCGUGGCGGCACCUGCCGCCGGUGGUAAAAAAGAUCGGAAGAGCACACGUCU, the “aptazyme ON/OFF ratio” value came out at 1.11. To GGGUCGUCCCUUAAUAAUCGCGUGGAUAUGGCACGCAAGUUUCUACCGGGCACCGUAAAUGUCCGACUGGAGCCGUUCGGGCGGCUAUAAACAGACCUCAGGCCCGAAGCGUGGCGGCACCUGCCGCCGGUGGUAAAAAAGAUCGGAAGAGCACACGUCU belongs 1.02; to GGGUCGGCAUGUCAUAAUCGCGUGGAUAUGGCACGCAAGUUUCUACCGGGCACCGUAAAUGUCCGACUGGAGCCGUUCGGGCGGCUAUAAACAGACCUCAGGCCCGAAGCGUGGCGGCACCUGCCGCCGGUGGUAAAAAAGAUCGGAAGAGCACACGUCU, 1.3.
